According to US20100016697:

T1: MT1-MMP specific fluorogenic substrate MCA-Pro-Leu-Ala-Cys(p-OmeBz)-Trp-Ala-Arg(Dpa)-NH2
T1 chain: PLACWAR

B1: a disintegrin and metalloproteinase (ADAM)-10 (R&D Systems) (protein)
chain: TTSAEKNTCQLYIQTDHLFFKYYGTREAVIAQISSHVKAIDTIYQTTDFSGIRNISFMVKRIRINTTADEKDPTNPFRFPNIGVEKFLELNSEQNHDDYCLAYVFTDRDFDDGVLGLAWVGAPSGSSGGICEKSKLYSDGKKKSLNTGIITVQNYGSHVPPKVSHITFAHEVGHNFGSPHDSGTECTPGESKNLGQKENGNYIMYARATSGDKLNNNKFSLCSIRNISQVLEKKRNNCFVESGQPICGNGMVEQGEECDCGYSDQCKDECCFDANQPEGRKCKLKPGKQCSPSQGPCCTAQCAFKSKSEKCRDDSDCAREGICNGFTALCPASDPKPNFTDCNRHTQVCINGQCAGSICEKYGLEECTCASSDGKDDKELCHVCCMKKMDPSTCASTGSVQWSRHFSGRTITLQPGSPCNDFRGYCDVFMRCRLVDADGPLARLKKAIFSPELYENIAE
B2: MMP-2 (part of MMP-2/9, Chemicon) (protein)
chain: YNFFPRKPKWDKNQITYRIIGYTPDLDPETVDDAFARAFQVWSDVTPLRFSRIHDGEADIMINFGRWEHGDGYPFDGKDGLLAHAFAPGTGVGGDSHFDDDELWTLGEGQVVRVKYGNADGEYCKFPFLFNGKEYNSCTDTGRSDGFLWCSTTYNFEKDGKYGFCPHEALFTMGGNAEGQPCKFPFRFQGTSYDSCTTEGRTDGYRWCGTTEDYDRDKKYGFCPETAMSTVGGNSEGAPCVFPFTFLGNKYESCTSAGRSDGKMWCATTANYDDDRKWGFCPDQGYSLFLVAAHEFGHAMGLEHSQDPGALMAPIYTYTKNFRLSQDDIKGIQELYGASPDIDLGTGPTPTLGPVTPEICKQDIVFDGIAQIRGEIFFFKDRFIWRTVTPRDKPMGPLLVATFWPELPEKIDAVYEAPQEEKAVFFAGNEYWIYSASTLERGYPKPLTSLGLPPDVQRVDAAFNWSKNKKTYIFAGDKFWRYNEVKKKMDPGFPKLIADAWNAIPDNLDAVVDLQGGGHSYFFKGAYYLKLENQSLKSVKFGSIKSDWLGC

Biological target: T1, MT1-MMP specific fluorogenic substrate …

Protein	fluorescence emission (cleavage of the quenched fluorogenic substrate)
B1	Incubation with MMP-2/9, MMP-8, or ADAM-10 and 17 alone failed to cause fluorescence emission from the MT1-MMP substrate.
B2	Incubation with MMP-2/9, MMP-8, or ADAM-10 and 17 alone failed to cause fluorescence emission from the MT1-MMP substrate.
